Values joined by “and” are separate entries in the source; they are usually repeats but may differ in a detail not shown here. Equal entries are not always repeated. Where no end group is shown, it is not given here.
The binders below were run against human mpl receptor (human) (UniProt P40238) (assay: cell-based or functional assay).

Pb EC50	Binder
1.56 ng/mL	WPMEGPTLRHWLAARAAR (Fc fusion, not shown: a dimerising Fc or GST, also: Fc fusion, side and linker not given here) [SEQ ID NO: 171 (TPO-mimetic fusion protein of Table 13)]
1.84 ng/mL	AWMEGPTLRHWLAARAAY (Fc fusion, not shown: a dimerising Fc or GST, also: Fc fusion, side and linker not given here) [SEQ ID NO: 149 (TPO-mimetic fusion protein of Table 13)]
4.01 ng/mL	QGCSWGGPTLKNWLQCVRAKHS (Fc fusion, not shown: a dimerising Fc or GST, cysteine pairing not given here; also: fused to an Fc molecule, side and linker not given here) [SEQ ID NO: 11 (TPO-mimetic fusion protein of Table 13)]
0.79 ng/mL	YMMEGPTLRHWLATRAGR (Fc fusion, not shown: a dimerising Fc or GST, also: Fc fusion, side and linker not given here) [SEQ ID NO: 103 (TPO-mimetic fusion protein of Table 13)]
1.43 ng/mL and 1.81 ng/mL	WMMEGPTLRHWLAARARY (Fc fusion, not shown: a dimerising Fc or GST, also: Fc fusion, side and linker not given here) [SEQ ID NO: 115 (TPO-mimetic fusion protein of Table 13)]
1.09 ng/mL	SAIEGPTLRHWLAWRAML (Fc fusion, not shown: a dimerising Fc or GST, also: Fc fusion, side and linker not given here) [SEQ ID NO: 117 (TPO-mimetic fusion protein of Table 13)]
3.1 ng/mL	LTMEGPTLRHWLAARATR (Fc fusion, not shown: a dimerising Fc or GST, also: Fc fusion, side and linker not given here) [SEQ ID NO: 225 (TPO-mimetic fusion protein of Table 13)]
2.8 ng/mL	HPIEGPTLRLWLAARARA (Fc fusion, not shown: a dimerising Fc or GST, also: Fc fusion, side and linker not given here) [SEQ ID NO: 163 (TPO-mimetic fusion protein of Table 13)]
1.83 ng/mL	ICTEGCTLRLWLAERSRV (Fc fusion, not shown: a dimerising Fc or GST, cysteine pairing not given here; also: Fc fused at N- or C-terminus, side and linker not given here) [SEQ ID NO: 241 (TPO-mimetic fusion protein of Table 13)]
2.08 ng/mL	WVMEGPTLRHWLAARASL (Fc fusion, not shown: a dimerising Fc or GST, also: Fc fusion, side and linker not given here) [SEQ ID NO: 123 (TPO-mimetic fusion protein of Table 13)]
1.82 ng/mL	YYLEGPTLRHWLAARAYL (Fc fusion, not shown: a dimerising Fc or GST, also: Fc fusion, side and linker not given here) [SEQ ID NO: 128 (TPO-mimetic fusion protein of Table 13)]
0.27 ng/mL	CSSGGPTLREWQQCQRAQ (Fc fusion, part only; not given: Fc and insertion site, part only, cysteine pairing not given here; also: peptide inserted in a loop of an Fc) [Fc-Loop-(SEQ ID NO: 455)]
0.44 ng/mL	QGCSSGGPTLREWQQCRRMQHS (Fc fusion, not shown: a dimerising Fc or GST, cysteine pairing not given here; also: fused to an Fc molecule, side and linker not given here) [SEQ ID NO: 9 (TPO-mimetic fusion protein of Table 13)]
2.31 ng/mL	CSSGGPTLREWQQCGRAQ (Fc fusion, part only; not given: Fc and insertion site, part only, cysteine pairing not given here; also: peptide inserted in a loop of an Fc) [Fc-Loop-(SEQ ID NO: 456)]
0.28 ng/mL	CSSGGPTLREWQQCSRAQ (Fc fusion, part only; not given: Fc and insertion site, part only, cysteine pairing not given here; also: peptide inserted in a loop of an Fc) [Fc-Loop-(SEQ ID NO: 454)]
1.89 ng/mL	DAIEGPTLRLWLEARRKQ (Fc fusion, not shown: a dimerising Fc or GST, also: Fc fusion, side and linker not given here) [SEQ ID NO: 139 (TPO-mimetic fusion protein of Table 13)]

Source: patent US20110275122A1
